Measured values published in patent publication US20230094867A1 (Janssen / Centocor, published 2023).
Where “and” joins values, the source holds several entries; their conditions need not be identical. Equal entries are not always repeated.

Legend:
[1] = molecular target: T1, CD79b CAR (CD9B441-HL) expressed on SupT1 cells; experiment: flow cytometry on live CD9B441-HL SupT1 cells with directly rPE-conjugated antibody; PE median fluorescence intensity
T1 construct: Chimeric antigen receptor with the CD9B441 scFv in VH-VL order; also called SupT1-CD9B441-HL; CD9B441-HL SupT1 cells
T1 sequence (chain, as listed by the source limits assumed): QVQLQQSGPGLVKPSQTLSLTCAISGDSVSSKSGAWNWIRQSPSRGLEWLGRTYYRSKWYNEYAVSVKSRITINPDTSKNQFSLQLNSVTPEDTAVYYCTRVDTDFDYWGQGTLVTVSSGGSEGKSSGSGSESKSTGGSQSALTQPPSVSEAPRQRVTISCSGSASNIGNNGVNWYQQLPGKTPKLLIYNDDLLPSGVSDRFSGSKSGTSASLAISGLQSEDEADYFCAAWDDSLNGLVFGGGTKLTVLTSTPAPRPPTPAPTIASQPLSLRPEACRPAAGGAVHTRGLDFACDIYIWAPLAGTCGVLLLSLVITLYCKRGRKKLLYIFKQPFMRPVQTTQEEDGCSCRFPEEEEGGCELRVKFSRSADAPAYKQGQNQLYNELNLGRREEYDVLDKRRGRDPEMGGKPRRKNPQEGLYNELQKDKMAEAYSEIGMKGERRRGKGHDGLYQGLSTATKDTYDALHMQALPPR

[2] = molecular target: T2, CD9B503 (CD9B441-HL-scFv-Fc bivalent fusion protein) (Biotinylated in the panning and MSD screening assays of Example 1.); experiment: MSD electrochemiluminescent immunoassay, crude Fab lysate on biotinylated scFv-Fc on streptavidin plate
T2 construct: also called CD9B441-derived scFv-fusion protein
T2 sequence (scFv, as listed by the source limits assumed): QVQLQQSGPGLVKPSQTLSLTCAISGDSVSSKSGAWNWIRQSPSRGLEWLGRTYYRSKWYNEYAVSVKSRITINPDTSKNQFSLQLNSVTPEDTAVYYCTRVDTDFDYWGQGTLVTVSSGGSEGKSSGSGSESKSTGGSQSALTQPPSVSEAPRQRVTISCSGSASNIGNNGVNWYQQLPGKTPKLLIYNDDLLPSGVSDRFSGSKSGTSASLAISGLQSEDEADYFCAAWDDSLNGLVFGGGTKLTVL
Experimental: The monoclonal Fab lysates prepared from the enriched Fab libraries were screened in Meso Scale Discovery (MSD) based electro-chemiluminescent immunoassays (ECLIA) for binding to CD9B503 but not to a similar negative control scFv fusion protein CD9B504 (CD9B449-HL-scFv Fc). Biotinylated ScFv-Fc fusion antigens, target antigen CD9B503 or negative control scFv fusion protein counter screening reagent CD9B504, were diluted to a concentration of 2.5 nM in SuperBlock T20 (TBS) Blocking Buffer (Thermo cat #37536) and 50 ul/well was added to their respective MSD 384-well streptavidin plates (Meso Scale Discovery cat #L21SA-5) and incubated on a shaker for 30 min at RT. The plates were washed 1×80 ul/well 1×PBST and crude Fab lysates from E. coli expressions in 96-well plates were stamped into the 384-well assay plates in duplicate and incubated on a shaker for 1 hour at RT. The assay plates were washed 1×80 ul/well 1×PBST and 6 nM of SULFO-TAG Anti-human/NHP Kappa Antibody (Meso Scale cat #D20TF-6) added at 10 ul/well, and the plates incubated on a shaker for 1 hour at RT. The plates were washed 2×80 ul/well 1×PBST and 35 ul/well of 1×MSD Read Buffer T (Meso Scale cat #R92TC-1) added to each well and the plates analyzed on an MSD Sector 5600 plate reader. […]

[3] = molecular target: T1, CD79b CAR (CD9B441-HL) expressed on …; experiment: flow cytometry on live CD9B441-HL SupT1 cells, detected with PE goat anti-mouse IgG; PE median fluorescence intensity
Experimental: SupT1 cells expressing CD9B441-HL were compared to parental CAR-SupT1 cells. Cells (200,000 cells/well) were stained with LIVE/DEAD Fixable Near-IR viability dye (Life Technologies cat #L10119) and then incubated with increasing concentrations of A003B192 and A003B274 for 45 minutes on ice. In addition, both anti-idiotypic antibodies were tested in the presence of Fc-CD9B441-HL fusion protein to assess the specificity of A003B192 and A003B274 binding to CD9B441-HL CAR. Following incubation, the samples were washed with BSA stain buffer (BD Biosciences cat #554657) and stained with PE-goat anti-mouse IgG polyclonal antibody (Biolegend cat #405307) to detect bound antibody on live CAR+SupT1 cells. After incubation, washing, and fixation (Cytofix, BD Biosciences cat #554655), the samples were acquired on a 10 color FACSCanto II (BD Biosciences) flow cytometer. Analysis was done using FlowJo (TreeStar) and the PE median fluorescent intensity of live CAR+SupT1 cells plotted in FIG. 3A. No binding was detected on CAR-SupT1 parental cells (data not shown) or in the presence of excess Fc-CD9B441-HL CAR fusion protein.

[4] = molecular target: T3, CD9B574 (CD9B441-LH-scFv-Fc monovalent fusion protein); experiment: SPR (Biacore), mAb captured on anti-mouse Fc chip, scFv-Fc antigen 100 nM to 0.16 nM in solution
T3 construct: Described only as CD9B441-LH-scFv-Fc monovalent fusion protein
T3 sequence (scFv, as listed by the source limits assumed): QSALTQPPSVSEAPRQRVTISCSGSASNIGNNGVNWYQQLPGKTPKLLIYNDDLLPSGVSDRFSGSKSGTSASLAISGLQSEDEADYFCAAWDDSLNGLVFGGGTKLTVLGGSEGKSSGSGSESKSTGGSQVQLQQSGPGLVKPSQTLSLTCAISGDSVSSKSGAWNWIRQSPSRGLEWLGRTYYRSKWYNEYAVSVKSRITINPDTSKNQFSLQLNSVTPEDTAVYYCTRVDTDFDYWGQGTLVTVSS
Experimental: (§1) Biacore system (Cytiva) was used to measure bio-molecular interactions by surface plasmon resonance (SPR). Anti-Mouse Fc antibody directly immobilized on a CMS sensor chip. Library Antibodies (Mouse IgG2a) diluted to 1 ug/ml to reach approximately 20-60 RU. Antigens (scFv Fc fusions) are associated at 100 nM to 0.16 nM, 1:5 dilutions for 3 minutes. Dissociation for 30 mins. The results of the assay (Table 1 below) show the nanomolar dissociation constant of A003B192 and A003B274 with CD9B503 (CD9B441-HL-scFv-Fc bivalent fusion protein) and CD9B574 (CD9B441-LH-scFv-Fc monovalent fusion protein).

[5] = molecular target: T2, CD9B503 (CD9B441-HL-scFv-Fc bivalent …); experiment: as above
Experimental: as §1

Binder	signal ratio of CD9B503 over CD9B504 [2]	EC50 (read off the curve) [3]	Kd [5]	also measured
recombinant phycoerythrin-conjugated A003B192 (antibody, mouse IgG2a, kappa, V domains shown, antibody conjugated to recombinant phycoerythrin (rPE), 1:1 PE:antibody; site of attachment not stated, also called A003B192 conjugated to rPE; PE-antibody conjugate) VH: QVQLVQSGAEVKKPGSSVKVSCKASGGTFKSDAISWVRQAPGQGLEWMGGIRPNEGNAEYAQKFQGRVTITADESTSTAYMELSSLRSEDTAVYYCARGRYGAYRLVYYAFDYWGQGTLVTVSS VL: not shown				binding result [1]: binds
A003B192 (antibody, mouse IgG2a, kappa, V domains shown, also called anti-idiotypic antibody A003B192; HC construct PBD000109791 / LC construct PBD00098715) VH: QVQLVQSGAEVKKPGSSVKVSCKASGGTFKSDAISWVRQAPGQGLEWMGGIRPNEGNAEYAQKFQGRVTITADESTSTAYMELSSLRSEDTAVYYCARGRYGAYRLVYYAFDYWGQGTLVTVSS VL: not shown		~0.02 µg/mL	40 pM and 37 pM	Kd [4]: 1600 pM and 1610 pM
A003B274 (antibody, mouse IgG2a, kappa, V domains shown, also called anti-idiotypic antibody A003B274; HC construct PBD000109922 / LC construct PBD00098715) VH: QVQLVQSGAEVKKPGSSVKVSCKASGGTFKSYAISWVRQAPGQGLEWMGYISPESGTANYAQKFQGRVTITADESTSTAYMELSSLRSEDTAVYYCARERYYYGYRRYRYYGMDVWGQGTLVTVSS VL: not shown		~0.04 µg/mL	230 pM and 226 pM	

Further lines, with some results ahead:

signal ratio of CD9B503 over CD9B504 [2]	EC50 (read off the curve) [3]	Kd [5]	Binder	also measured
10			CL002588468 (monoclonal Fab, parent clone for the VH and VL in A003B192) (Fab, V domains shown, Soluble human Fab in crude E. coli lysate) VH: QVQLVQSGAEVKKPGSSVKVSCKASGGTFKSDAISWVRQAPGQGLEWMGGIRPNEGNAEYAQKFQGRVTITADESTSTAYMELSSLRSEDTAVYYCARGRYGAYRLVYYAFDYWGQGTLVTVSS VL: not shown	
10			CL002588437 (monoclonal Fab, parent clone for the VH and VL in A003B274) (Fab, V domains shown, Soluble human Fab in crude E. coli lysate) VH: QVQLVQSGAEVKKPGSSVKVSCKASGGTFKSYAISWVRQAPGQGLEWMGYISPESGTANYAQKFQGRVTITADESTSTAYMELSSLRSEDTAVYYCARERYYYGYRRYRYYGMDVWGQGTLVTVSS VL: not shown	
